From paper PMC9865274, “Ultrasensitive Detection of Interleukin 6 by Using Silicon Nanowire Field-Effect Transistors”

Target: Interleukin 6 (IL-6) (Homo sapiens, UniProt P05231 30-212)
Assay: SiNW-FET (gate voltage shift); aptamer immobilized on mSAMs-GA; IL-6 in PBS pH 7.4, 30 min; valid signal from 100 fM (2.1 pg/mL), approx. linear to 10 nM; no Kd; IL-6 in PBS pH 7.4, 30 min incubation, PBS wash; readout in 10 mM bis-tris propane pH 7.4; temperature of binding not stated
Conditions: protein: commercial

Interleukin 6 (IL-6), sequence (P05231 30-212): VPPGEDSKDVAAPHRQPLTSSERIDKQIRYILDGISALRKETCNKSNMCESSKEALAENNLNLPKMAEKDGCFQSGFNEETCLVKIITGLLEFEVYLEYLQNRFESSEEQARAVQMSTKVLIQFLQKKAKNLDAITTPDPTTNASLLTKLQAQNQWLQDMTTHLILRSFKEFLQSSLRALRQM

Binder: GGTGGCAGGAGGACTATTTATTTGCTTTTCT (ssDNA, 5'-NH2-C6, covalently immobilized via glutaraldehyde on mixed-SAM SiNW-FET) [anti-IL-6 aptamer (31 nt)]
- binding result: binds
